According to patent publication US20160297889A1 (TORAY INDUSTRIES, published 2016):

T1: CAPRIN-1 protein expressed on the membrane surface of human cancer cells (human, UniProt Q14444 2-709)
T1 sequence (looked up): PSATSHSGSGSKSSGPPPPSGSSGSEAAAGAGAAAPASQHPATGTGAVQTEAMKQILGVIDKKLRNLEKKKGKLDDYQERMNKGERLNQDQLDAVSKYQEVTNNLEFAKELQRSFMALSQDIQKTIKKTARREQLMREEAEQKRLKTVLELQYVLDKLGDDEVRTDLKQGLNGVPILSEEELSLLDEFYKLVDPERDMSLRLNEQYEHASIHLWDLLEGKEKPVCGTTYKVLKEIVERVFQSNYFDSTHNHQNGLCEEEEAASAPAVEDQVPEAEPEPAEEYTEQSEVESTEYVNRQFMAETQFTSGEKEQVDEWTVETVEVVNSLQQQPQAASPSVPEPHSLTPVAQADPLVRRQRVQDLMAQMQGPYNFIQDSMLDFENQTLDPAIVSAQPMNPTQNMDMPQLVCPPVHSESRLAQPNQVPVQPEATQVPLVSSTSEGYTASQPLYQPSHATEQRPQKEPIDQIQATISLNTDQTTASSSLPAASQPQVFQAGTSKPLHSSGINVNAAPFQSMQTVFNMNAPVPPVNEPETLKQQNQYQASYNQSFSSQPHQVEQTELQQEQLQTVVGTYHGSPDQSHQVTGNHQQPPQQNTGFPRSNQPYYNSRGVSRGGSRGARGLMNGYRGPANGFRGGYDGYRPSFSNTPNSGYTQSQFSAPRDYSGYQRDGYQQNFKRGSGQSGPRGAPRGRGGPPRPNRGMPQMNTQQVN


Target: T1, CAPRIN-1 protein expressed on the …
Assay: cell-based or functional assay

Row | Binder | ADCC cytotoxic activity (51Cr release) on 22Rv1 [%] | ADCC cytotoxic activity (51Cr release) on A-673 [%] | ADCC cytotoxic activity (51Cr release) on BT-474 [%] | ADCC cytotoxic activity (51Cr release) on Caki-2 [%] | ADCC cytotoxic activity (51Cr release) on FaDu [%] | ADCC cytotoxic activity (51Cr release) on G-361 [%] | ADCC cytotoxic activity (51Cr release) on HEC-1-A [%] | ADCC cytotoxic activity (51Cr release) on HT-29 [%] | ADCC cytotoxic activity (51Cr release) on HT-1080 [%] | ADCC cytotoxic activity (51Cr release) on HT-1376 [%] | ADCC cytotoxic activity (51Cr release) on Hep3B [%] | ADCC cytotoxic activity (51Cr release) on IM-9 [%] | ADCC cytotoxic activity (51Cr release) on MDA-MB-361 [%] | ADCC cytotoxic activity (51Cr release) on NCI-H2452 [%] | ADCC cytotoxic activity (51Cr release) on NCI-N87 [%] | ADCC cytotoxic activity (51Cr release) on NT/D1 [%] | ADCC cytotoxic activity (51Cr release) on OCI-AML5 [%] | ADCC cytotoxic activity (51Cr release) on OE33 [%] | ADCC cytotoxic activity (51Cr release) on Panc10.5 [%] | ADCC cytotoxic activity (51Cr release) on QG56 [%] | other results
1 | humanized antibody #5 (antibody, V domains shown) VH: EVQLVESGGGLVQPGGSLRLSCAASGFSLSSHSLGWVRQAPGKGLEWIGDIRSGGSAYYANWAKGRFTISRDNSKNTLYLQMNSLRAEDTAVYFCTRTNGPSDLTNRLDLWGQGTLVTVSS VL: EQVLTQSPSSLSASVGDRVTINCQASQSLYNNENLAWFQQKPGKVPKRLIYGASTLASGVSSRFSGSGSGTEFTLTISNLQPEDFAIYYCLGEFSCGSADCFAFGGGTKVEIK | ≥ 45 | ≥ 46 | ≥ 50 | ≥ 33 | ≥ 40 | ≥ 21 | ≥ 45 | ≥ 40 | ≥ 25 | ≥ 40 | ≥ 25 | ≥ 30 | ≥ 45 | ≥ 39 | ≥ 38 | ≥ 30 | ≥ 18 | ≥ 33 | ≥ 30 | ≥ 42 | ADCC cytotoxic activity (51Cr release) on RD-ES: ≥ 40%; ADCC cytotoxic activity (51Cr release) on RPM11666: ≥ 36%; ADCC cytotoxic activity (51Cr release) on Ramos: ≥ 18%; ADCC cytotoxic activity (51Cr release) on SKOV3: ≥ 31%; ADCC cytotoxic activity (51Cr release) on T24: ≥ 33%; ADCC cytotoxic activity (51Cr release) on TGBC14TKB: ≥ 30%; ADCC cytotoxic activity (51Cr release) on TT: ≥ 35%; ADCC cytotoxic activity (51Cr release) on U-87MG: ≥ 29%
2 | humanized antibody #9 (antibody, V domains shown) VH: EQSLVESGGGLVQPGGSLRLSCAASGFSLSSHSLGWVRQAPGKGLEWIGDIRSGGSAYYANWAKGRFTISRDNSKNTLYLQMNSLRAEDTAVYYCTRTNGPSDLTNRLDLWGQGTLVTVSS VL: DIVLTQSPSSLSASVGDRVTINCQASQSLYNNENLAWFQQKPGKVPKRLIYGASTLASGVSSRFSGSGSGTEFTLTISSLQCEDFAIYYCLGEFSCGSADCFAFGGGTKVEIK | ≥ 38 | ≥ 40 | ≥ 46 | ≥ 26 | ≥ 35 | ≥ 15 | ≥ 40 | ≥ 35 | ≥ 20 | ≥ 28 | ≥ 21 | ≥ 27 | ≥ 40 | ≥ 31 | ≥ 34 | ≥ 25 | ≥ 15 | ≥ 30 | ≥ 24 | ≥ 38 | ADCC cytotoxic activity (51Cr release) on RD-ES: ≥ 31%; ADCC cytotoxic activity (51Cr release) on RPM11666: ≥ 30%; ADCC cytotoxic activity (51Cr release) on Ramos: ≥ 15%; ADCC cytotoxic activity (51Cr release) on SKOV3: ≥ 27%; ADCC cytotoxic activity (51Cr release) on T24: ≥ 30%; ADCC cytotoxic activity (51Cr release) on TGBC14TKB: ≥ 25%; ADCC cytotoxic activity (51Cr release) on TT: ≥ 30%; ADCC cytotoxic activity (51Cr release) on U-87MG: ≥ 24%
3 | human-rabbit chimeric anti-CAPRIN-1 antibody (antibody, V domains shown) VH: QSLEESGGRLVTPGTPLTLTCTASGFSLSSHSLGWVRQAPGKGLEWIGDIRSGGSAYYANWAKGRFTISRTSTTVALKMTSLTTEDTATYFCTRTNGPSDLTNRLDLWGQGTLVTVSS VL: QVLTQTPSSVSAAVGGTVTINCQASQSLYNNENLAWFQQKPGQPPKRLIYGASTLASGVSSRFKGSGSGTQFTLTIGDVQCDDAAIYYCLGEFSCGSADCFAFGGGTEVVVK | ≥ 38 | ≥ 40 | ≥ 46 | ≥ 26 | ≥ 35 | ≥ 15 | ≥ 40 | ≥ 35 | ≥ 20 | ≥ 28 | ≥ 21 | ≥ 27 | ≥ 40 | ≥ 31 | ≥ 34 | ≥ 25 | ≥ 15 | ≥ 30 | ≥ 24 | ≥ 38 | ADCC cytotoxic activity (51Cr release) on RD-ES: ≥ 31%; ADCC cytotoxic activity (51Cr release) on RPM11666: ≥ 30%; ADCC cytotoxic activity (51Cr release) on Ramos: ≥ 15%; ADCC cytotoxic activity (51Cr release) on SKOV3: ≥ 27%; ADCC cytotoxic activity (51Cr release) on T24: ≥ 30%; ADCC cytotoxic activity (51Cr release) on TGBC14TKB: ≥ 25%; ADCC cytotoxic activity (51Cr release) on TT: ≥ 30%; ADCC cytotoxic activity (51Cr release) on U-87MG: ≥ 24%
4 | humanized antibody #8 (antibody, V domains shown) VH: QSLVESGGGLVQPGGSLRLSCAASGFSLSSHSLGWVRQAPGKGLEWIGDIRSGGSAYYANWAKGRFTISRTSSKNTVYLQMNSLRAEDTAVYFCTRTNGPSDLTNRLDLWGQGTLVTVSS VL: QVLTQSPSSLSASVGDRVTINCQASQSLYNNENLAWFQQKPGKVPKRLIYGASTLASGVSSRFSGSGSGTEFTLTISSLQCEDFAIYYCLGEFSCGSADCFAFGGGTKVEIK | ≥ 38 | ≥ 40 | ≥ 46 | ≥ 26 | ≥ 35 | ≥ 15 | ≥ 40 | ≥ 35 | ≥ 20 | ≥ 28 | ≥ 21 | ≥ 27 | ≥ 40 | ≥ 31 | ≥ 34 | ≥ 25 | ≥ 15 | ≥ 30 | ≥ 24 | ≥ 38 | ADCC cytotoxic activity (51Cr release) on RD-ES: ≥ 31%; ADCC cytotoxic activity (51Cr release) on RPM11666: ≥ 30%; ADCC cytotoxic activity (51Cr release) on Ramos: ≥ 15%; ADCC cytotoxic activity (51Cr release) on SKOV3: ≥ 27%; ADCC cytotoxic activity (51Cr release) on T24: ≥ 30%; ADCC cytotoxic activity (51Cr release) on TGBC14TKB: ≥ 25%; ADCC cytotoxic activity (51Cr release) on TT: ≥ 30%; ADCC cytotoxic activity (51Cr release) on U-87MG: ≥ 24%
